Experiment [1] concerns the target T1, Recombinant Human IL-17 (human, UniProt Q16552 20-155, limits assumed).
T1 construct: bought reagent
T1 sequence (looked up): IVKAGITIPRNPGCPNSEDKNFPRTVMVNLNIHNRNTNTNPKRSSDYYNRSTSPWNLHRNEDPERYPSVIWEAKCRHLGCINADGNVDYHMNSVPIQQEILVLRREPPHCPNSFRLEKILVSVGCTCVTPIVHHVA
Put plainly: Biacore SPR. As to the method: (§1) The BIACORE assay (Biacore, Inc, Piscataway, N.J.) determines the affinity of antibodies or DVD-Ig with kinetic measurements of on-rate and off-rate constants. Binding of antibodies or DVD-Ig to a target antigen (for example, a purified recombinant target antigen) was determined by surface plasmon resonance-based measurements with a Biacore® 1000 or 3000 instrument (Biacore® AB, Uppsala, Sweden) using running HBS-EP (10 mM HEPES [pH 7.4], 150 mM NaCl, 3 mM EDTA, and 0.005% surfactant P20) at 25° C. All chemicals were obtained from Biacore® AB (Uppsala, Sweden) or otherwise from a different source as described in the text. For example, approximately 5000 RU of goat anti-mouse IgG, (Fcγ), fragment specific polyclonal antibody (Pierce Biotechnology Inc, Rockford, Ill.) diluted in 10 mM sodium acetate (pH 4.5) was directly immobilized across a CM5 research grade biosensor chip using a standard amine coupling kit according to manufacturer's instructions and procedures at 25 μg/ml. Unreacted moieties on the biosensor surface were blocked with ethanolamine. Modified carboxymethyl dextran surface in flowcell 2 and 4 was used as a reaction surface. Unmodified carboxymethyl dextran without goat anti-mouse IgG in flow cell 1 and 3 was used as the reference surface. For kinetic analysis, rate equations derived from the 1:1 Langmuir binding model were fitted simultaneously to association and dissociation phases of all eight injections (using global fit analysis) with the use of Biaevaluation 4.0.1 software. Purified antibodies or DVD-Ig were diluted in HEPES-buffered saline for capture across goat anti-mouse IgG specific reaction surfaces. Antibodies or DVD-Ig to be captured as a ligand (25 μg/ml) were injected over reaction matrices at a flow rate of 5 μl/min. The association and dissociation rate constants, kₒₙ (M⁻¹s⁻¹) and koff (s⁻¹) were determined under a continuous flow rate of 25 μl/min. Rate constants were derived by making kinetic binding measurements at different antigen concentrations ranging from 10−200 nM. The equilibrium dissociation constant (M) of the reaction between antibodies or DVD-Igs and the target antigen was then calculated from the kinetic rate constants by the following formula: KD=koff/kₒₙ. Binding was recorded as a function of time and kinetic rate constants are calculated.
For orientation: SPR reads the build-up and loss of mass on a sensor chip optically.

In experiment [2] the target is T2, Recombinant Human IL-1β (human, UniProt P01584 117-269). Put plainly: cell-based or functional assay.
Experiment [3] addresses T2, Recombinant Human IL-1β. The experiment in a line: Biacore SPR. As to the method:
as §1

The target of experiment [4] is T3, Recombinant Human IL-1β (human, UniProt P01584 117-269).
T3 construct: bought reagent; also called IL-1B
Put plainly: Biacore SPR. As to the method: as §1

Experiment [5] concerns the target T4, Recombinant Human IL-17 (human, UniProt Q16552 20-155, limits assumed).
T4 construct: Bought reagent
T4 sequence (looked up): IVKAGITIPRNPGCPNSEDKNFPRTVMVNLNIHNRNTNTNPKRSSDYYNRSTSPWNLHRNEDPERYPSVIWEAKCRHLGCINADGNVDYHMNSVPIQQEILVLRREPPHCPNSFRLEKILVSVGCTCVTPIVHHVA
The experiment in a line: Biacore SPR. How it is done: as §1

Experiment [6] has as its target T4, Recombinant Human IL-17. Put plainly: cell-based or functional assay.
Experiment [7] concerns the target T4, Recombinant Human IL-17. Put plainly: Biacore SPR; later run, parent printed with DVD1639-DVD1648; kon 4.70E+06, koff 8.50E-05. As to the method: (§2) The BIACORE assay (Biacore, Inc, Piscataway, N.J.) determines the affinity of antibodies or DVD-Ig with kinetic measurements of on-rate and off-rate constants. Binding of antibodies or DVD-Ig to a target antigen (for example, a purified recombinant target antigen) was determined by surface plasmon resonance-based measurements with a Biacore® 1000 or 3000 instrument (Biacore® AB, Uppsala, Sweden) using running HBS-EP (10 mM HEPES [pH 7.4], 150 mM NaCl, 3 mM EDTA, and 0.005% surfactant P20) at 25° C. All chemicals were obtained from Biacore® AB (Uppsala, Sweden) or otherwise from a different source as described in the text. […] The association and dissociation rate constants, kₒₙ (M⁻¹s⁻¹) and koff (s⁻¹) were determined under a continuous flow rate of 25 μl/min. […] The equilibrium dissociation constant (M) of the reaction between antibodies or DVD-Igs and the target antigen was then calculated from the kinetic rate constants by the following formula: KD=koff/kₒₙ. Binding was recorded as a function of time and kinetic rate constants are calculated.

Experiment [8] deals with T1, Recombinant Human IL-17. The experiment in a line: Biacore SPR; first run, parent printed with DVD1282-DVD1291; kon 2.80E+03, koff 2.40E-05. How it is done:
as §2

Several values for one entry are separate records, joined by “and”; a condition that tells them apart may be missing. Equal values may be shown once.

By koff is commonly meant the first-order rate constant of dissociation. What is called Kd is the concentration at which binding is half-saturated. The kon is the second-order rate constant of association.

B1: AB273 (antibody, human IgG1, kappa, V domains shown)
VH: EVQLVQSGAEVKKPGSSVKVSCKASGYTFTDYEIHWVRQAPGQGLEWMGVNDPESGGTFYNQKFDGRVTLTADESTSTAYMELSSLRSEDTAVYYCTRYSKWDSFDGMDYWGQGTTVTVSS
VL: DIQMTQSPSSLSASVGDRVTITCRASSGIISYIDWFQQKPGKAPKRLIYATFDLASGVPSRFSGSGSGTDYTLTISSLQPEDFATYYCRQVGSYPETFGQGTKLEIKR
notes: constants by vectors: V1 wt hIgG1, V2 kappa
B1: in the experiment with Recombinant Human IL-17 [1], the koff is ≤ 1e-05 s⁻¹ and 1.2e-05 s⁻¹ and 1.3e-05 s⁻¹.

B2: AB270 (antibody, human IgG1, kappa, V domains shown)
VH: EVQLQESGPGLVKPSETLSLTCTVSGFSLSDYGVSWIRQPPGKGLEWLGLIWGGGDTYYNSPLKSRLTISKDNSKSQVSLKLSSVTAADTAVYYCAKQRTLWGYDLYGMDYWGQGTLVTVSS
VL: DTQVTQSPSSLSASVGDRVTITCITSTDIDVDMNWYQQKPGKPPKLLISQGNTLRPGVPSRFSSSGSGTDFTFTISSLQPEDFATYYCLQSDNLPLTFGQGTKLEIKR
notes: Parent antibody
B2: the “IL-1β Neutralization Assay EC50” value in the experiment with Recombinant Human IL-1β [2] turned out to be 0.245 nM. For the same molecule, in the experiment with Recombinant Human IL-1β [3], the Kd stood at 0.08 nM, the koff stood at 0.00053 s⁻¹ and the kon is 6.6e+06 M⁻¹ s⁻¹.

B3: AB271 (antibody, human IgG1, kappa, V domains shown)
VH: EVQLQESGPGLVKPSETLSLTCTVSGFSLSDYGVSWIRQPPGKGLEWLGLIWGGGDTYYNSPLKSRLTISKDNSKSQVSLKLSSVTAADTAVYYCAKQRTLWGYDLYGMDYWGQGTLVTVSS
VL: DTVVTQSPAFLSVTPGEKVTITCITSTDIDVDMNWYQQKPDQPPKLLISQGNTLRPGVPSRFSSSGSGTDFTFTISSLEAEDAATYYCLQSDNLPLTFGQGTKLEIKR
notes: Parent antibody
As for B3, in the experiment with Recombinant Human IL-1β [2], the “IL-1β Neutralization Assay EC50” value came to 0.308 nM. Besides, in the experiment with Recombinant Human IL-1β [3], the Kd is 0.11 nM, the koff was 0.00051 s⁻¹ and the kon was 4.6e+06 M⁻¹ s⁻¹.

B4: AB272 (antibody, human IgG1, kappa, V domains shown)
VH: EVQLVESGGGLVQPGGSLRLSCAVSGFTLSDYGVSWIRQAPGKGLEWLGLIWGGGDTYYNSPLKSRLTISKDNSKSTVYLQMNSLRAEDTAVYYCAKQRTLWGYDLYGMDYWGQGTLVTVSS
VL: ETTVTQSPSSLSASVGDRVTITCITSTDIDVDMNWYQQKPGKPPKLLISQGNTLRPGVPSRFSSSGSGTDFTFTISSLQPEDFATYYCLQSDNLPLTFGQGTKLEIKR
notes: Parent antibody
Regarding B4, in the experiment with Recombinant Human IL-1β [2], the “IL-1β Neutralization Assay EC50” value turned out to be 0.298 nM. Moreover, in the experiment with Recombinant Human IL-1β [3], the Kd was 0.14 nM, the dissociation rate constant (koff) was found to be 0.00056 s⁻¹ and the kon is 4e+06 M⁻¹ s⁻¹.

B5: AB272 (antibody, human IgG1, kappa, V domains shown)
VH: EVQLVESGGGLVQPGGSLRLSCAVSGFTLSDYGVSWIRQAPGKGLEWLGLIWGGGDTYYNSPLKSRLTISKDNSKSTVYLQMNSLRAEDTAVYYCAKQRTLWGYDLYGMDYWGQGTLVTVSS
VL: ETTVTQSPSSLSASVGDRVTITCITSTDIDVDMNWYQQKPGKPPKLLISQGNTLRPGVPSRFSSSGSGTDFTFTISSLQPEDFATYYCLQSDNLPLTFGQGTKLEIKR
notes: as for B1
Regarding B5, in the experiment with Recombinant Human IL-1β [4], the Kd was 0.14 nM and 0.12 nM; the koff is 0.00053 s⁻¹ and 0.00066 s⁻¹ and 0.00056 s⁻¹; the kon was 3.9e+06 M⁻¹ s⁻¹ and 5.3e+06 M⁻¹ s⁻¹ and 4e+06 M⁻¹ s⁻¹.

B6: AB274 (antibody, human IgG1, kappa, V domains shown)
VH: EVQLVQSGAEVKKPGSSVKVSCKASGGSFGGYGIGWVRQAPGQGLEWMGGITPFFGFADYAQKFQGRVTITADESTTTAYMELSGLTSDDTAVYYCARDPNEFWNGYYSTHDFDSWGQGTTVTVSS
VL: EIVLTQSPDFQSVTPKEKVTITCRASQDIGSELHWYQQKPDQPPKLLIKYASHSTSGVPSRFSGSGSGTDFTLTINGLEAEDAGTYYCHQTDSLPYTFGPGTKVDIKR
notes: Parent antibody
With B6, in the experiment with Recombinant Human IL-17 [5], the Kd stood at 0.0068 nM, the koff stood at 1.8e-05 s⁻¹ and the on-rate (kon) came to 2.7e+06 M⁻¹ s⁻¹. For the same molecule, the “IL-17 Neutralization Assay EC50” value with Recombinant Human IL-17 [6] is 0.002 nM.

B7: AB274 (antibody, human IgG1, kappa, V domains shown)
VH: EVQLVQSGAEVKKPGSSVKVSCKASGGSFGGYGIGWVRQAPGQGLEWMGGITPFFGFADYAQKFQGRVTITADESTTTAYMELSGLTSDDTAVYYCARDPNEFWNGYYSTHDFDSWGQGTTVTVSS
VL: EIVLTQSPDFQSVTPKEKVTITCRASQDIGSELHWYQQKPDQPPKLLIKYASHSTSGVPSRFSGSGSGTDFTLTINGLEAEDAGTYYCHQTDSLPYTFGPGTKVDIKR
notes: as for B1
For the molecule B7, in the experiment with Recombinant Human IL-17 [1], the koff is 2e-05 s⁻¹ and 2.1e-05 s⁻¹ and 1.8e-05 s⁻¹.

B8: AB275 (antibody, human IgG1, kappa, V domains shown)
VH: EVQLVQSGAEVKKPGESVKISCKASGGSFRSYGISWVRQAPGQGLEWMGGITHFFGITDYAQKFQGRVTITADESTTTAYMELSGLTSDDTAVYYCAREPNDFWNGYYDTHDFDSWGQGTTVTVSS
VL: EIVLTQSPDFQSVTPKEKVTITCRASQNIGSELHWYQQKPDQSPKLLIKYASHSISGVPSRFSGSGSGTDFTLTINGLEAEDAATYYCHQSDTLPHTFGQGTKVDIKR
notes: Parent antibody
Take B8: the dissociation constant (Kd) with Recombinant Human IL-17 [7] is 0.018 nM. Moreover, in the experiment with Recombinant Human IL-17 [5], the koff is 8.5e-05 s⁻¹ and the kon was 4.7e+06 M⁻¹ s⁻¹. For the same molecule, in the experiment with Recombinant Human IL-17 [6], the “IL-17 Neutralization Assay EC50” value came to 0.0032 nM.

B9: AB275 (antibody, human IgG1, kappa, V domains shown)
VH: EVQLVQSGAEVKKPGESVKISCKASGGSFRSYGISWVRQAPGQGLEWMGGITHFFGITDYAQKFQGRVTITADESTTTAYMELSGLTSDDTAVYYCAREPNDFWNGYYDTHDFDSWGQGTTVTVSS
VL: EIVLTQSPDFQSVTPKEKVTITCRASQNIGSELHWYQQKPDQSPKLLIKYASHSISGVPSRFSGSGSGTDFTLTINGLEAEDAATYYCHQSDTLPHTFGQGTKVDIKR
notes: as for B1
Consider B9, for which the Kd with Recombinant Human IL-17 [1] worked out at 0.019 nM; in the experiment with Recombinant Human IL-17 [8], 8.8 nM.
